Measurements reported in paper doi:10.1101/2021.06.02.446795.

Target: HMPV nucleoprotein N (strain CAN97-83), full-length, N-RNA rings (human metapneumovirus (strain CAN97-83))
Experiment: SEC

For “HMPV nucleoprotein N (strain CAN97-83), full-length, N-RNA rings (natural protein)”, the stoichiometry N was 10.
